In article PMC3632419 one finds Km and kcat data, which are given here for four proteins.

Numbering of substitutions follows the chain as printed. Names may count otherwise.

Holding throughout (assay): coupled-enzyme assay of AMP release
Holding throughout (type): biochemical, Streptomyces clavuligerus
Common to all, as to conditions: ATP as co-substrate

Substrate in series [1]: C[C@@H](CN[C@@H](CCCNC(=N)N)C(=O)O)C(=O)O
Substrate in series [2]: C[C@H](CN[C@@H](CCCNC(=N)N)C(=O)O)C(=O)O
Substrate in series [3]: N=C(N)NCCC[C@H](NCCC(=O)O)C(=O)O

B1: β-lactam synthetase (βLS) (Streptomyces clavuligerus) (protein)
chain: MGAPVLPAAFGFLASARTGGGRAPGPVFATRGSHTDIDTPQGERSLAATLVHAPSVAPDRAVARSLTGAPTTAVLAGEIYNRDELLSVLPAGPAPEGDAELVLRLLERYDLHAFRLVNGRFATVVRTGDRVLLATDHAGSVPLYTCVAPGEVRASTEAKALAAHRDPKGFPLADARRVAGLTGVYQVPAGAVMDIDLGSGTAVTHRTWTPGLSRRILPEGEAVAAVRAALEKAVAQRVTPGDTPLVVLSGGIDSSGVAACAHRAAGELDTVSMGTDTSNEFREARAVVDHLRTRHREITIPTTELLAQLPYAVWASESVDPDIIEYLLPLTALYRALDGPERRILTGYGADIPLGGMHREDRLPALDTVLAHDMATFDGLNEMSPVLSTLAGHWTTHPYWDREVLDLLVSLEAGLKRRHGRDKWVLRAAMADALPAETVNRPKLGVHEGSGTTSSFSRLLLDHGVAEDRVHEAKRQVVRELFDLTVGGGRHPSEVDTDDVVRSVADRTARGAA
A word on the Km: it is the concentration of substrate that gives half-maximal velocity. In general, kcat refers to the number of substrate molecules converted per active site and unit of time at saturation. Take B1: the Km in series [1] amounted to 60 ± 10 µM; in series [2], 40 ± 10 µM; in series [3], 37 ± 1 µM. Also, the figures for the kcat in series [1], in series [2] and in series [3] were 0.023 ± 0.001 s⁻¹, 0.032 ± 0.002 s⁻¹ and 0.87 ± 0.01 s⁻¹, respectively.

B2: β-lactam synthetase (βLS) (Streptomyces clavuligerus; V446G) (protein)
chain: B1 chain with V446G
Take B2: the Km in series [1] was determined as 1200 ± 100 µM; in series [2], 1900 ± 700 µM; in series [3] it was 610 ± 60 µM. For the same protein, the kcat in series [1] came to 0.13 ± 0.01 s⁻¹; in series [2], 0.07 ± 0.002 s⁻¹; in series [3], 0.13 ± 0.01 s⁻¹.

B3: β-lactam synthetase (βLS) (Streptomyces clavuligerus; V446A) (protein)
chain: B1 chain with V446A
B3: the Km in series [1] came out at 460 ± 40 µM; in series [2], 330 ± 20 µM; in series [3], 360 ± 20 µM. In addition, the kcat in series [1] turned out to be 0.34 ± 0.02 s⁻¹; in series [2], 0.014 ± 0.001 s⁻¹; in series [3], 0.28 ± 0.01 s⁻¹.

B4: β-lactam synthetase (βLS) (Streptomyces clavuligerus; H447A) (protein)
chain: B1 chain with H447A
With B4, in series [1], the Km worked out at 80 ± 60 µM and the kcat amounted to 0.013 ± 0.001 s⁻¹.
